{
  "source": "the DeepSol protein solubility set",
  "data": [
    {"test": "soluble on expression in E. coli; label from the status in PepcDB or PDB records", "values": [
      {"sequence": "MGHHHHHHSHMLKIIRAGMYTTVQDGGRHGFRQSGISHCGALDMPALRIANLLVGNDANAPALEITLGQLTVEFETDGWFALTGAGCEARLDDNAVWTGWRLPMKAGQRLTLKRPQHGMRSYLAVAGGIDVPPVMGSCSTDLKVGIGGLEGRLLKDGDRLPIGKSKRDSMEAQGVKQLLWGNRIRALPGPEYHEFDRASQDAFWRSPWQLSSQSNRMGYRLQGQILKRTTDRELLSHGLLPGVVQVPHNGQPIVLMNDAQTTGGYPRIACIIEADMYHLAQIPLGQPIHFVQCSLEEALKARQDQQRYFEQLAWRLHNEN", "soluble on expression in E. coli": "not soluble"},
      {"sequence": "MPGELLGAHYGHCFGCGEEQSHGLHLAARAGQGVSITAEFTVQPAHQGAPGLAHGGVLATALDETLGSLNWLLRTIAVTGRLETDFVRPVPVGTVLYLEAEVTAVAGRKIYSTATGRIGGPEGPVAVRADALFVEVKVDHFTDNGRQEEIRAAMNDPDQLRRARAFEVNPLEHHHHHH", "soluble on expression in E. coli": "not soluble"},
      {"sequence": "MGSSHHHHHHMQPEHVKERYKNFLNQHVGPDMSVQRCNSEIGPNNRKITLSGTDNGCKPVNTFILANKRLIKTVCGRAGSPQGNMVRSNQPFPVVKCVLNNGERHPYCEYRGTRSTRYIVLKCEEGWPVHYHEDEVNVG", "soluble on expression in E. coli": "soluble"},
      {"sequence": "SLALPADPIQRCLDIRRLVDITSRQKMAAKEPGVLRFKFHKISASELPLDNPVGNMDEVIQALNNQIENCNNSYGEFQTVTIAGHQFKRQEWCLNTNKKMLTLAKAAHGDFKKFLSSIKTEFDWYKSDGWPENHAGFKKGEFQFTAYYAPAAVEARSERGGAFLYPLYSNPGVVSVALESKKYNLKTPLCGVDPLSKVMRGFCLKNADGTYSVAPDREEIEHGALNPKYIIGYLKDPNDSAFLMLQGSGSLLLDGKLFHINYDGANGRPRTMLGRIVQCAQDPTCGGNLDTMERCAKDPKCHDEAKLRCNVSKKIRQSAASEKLIRQYLNNLTPDKADNLRNRDQSYVFFAKEDGGPYGSENISLTPHV", "soluble on expression in E. coli": "not soluble"},
      {"sequence": "MAIIKCDVCAYPFSNKQDPRCSKCHPKITPPSKPKNPYALPMKQQLILGPIVGIVVGLMFAACEGNRPGRATTACMLRARAQAIAAGNPNYTHAKEVSPTRAMLVFRKDGRTRNTNFFCDSLVTDREA", "soluble on expression in E. coli": "not soluble"},
      {"sequence": "MSLKINVADFHGTYLENPRTVNNFSLTGTDQKVFDNSSLQGRWTLVFFGFTNCGYLCPTTMAELGKMYRILEKKGVKNLPQVVMISIDPQRDSLDKLGSYVTSFHKSFYGARGEEDSIKSMTHEMGIAYAKINSKESSEPENYDIQHSGAVMLFNPQGELNAFFTTPHHADLLAKDYVLLVSEGHHHHHH", "soluble on expression in E. coli": "soluble"},
      {"sequence": "TQDWNWNIGYNISYNKNKITKMTFNDDPNYAGVIHGGIDGGTGYNALIHRVGEAFNSFYVFEQIYGPDGKPIEGAYVDQNGDNQINDADLICFKKAAPDVFMGLTSQLSYKNWDFSFALRGSFGNYVYNNVQSNREAYEGANMYDQTGFLKNRLTSARSTDFKNAQYRSSYYVQNASFVRMDNISLGYTFNKLFNDKQSARVYATVQNPFVITKYKGLDPEISGEGIDNNIYPRPRVFMIGLNLNF", "soluble on expression in E. coli": "not soluble"},
      {"sequence": "MTIKLVATDMDGTFLDGNGRFDMDRLKSLLVSYKEKGIYFAVASGRGFLSLEKLFAGVRDDIIFIAENGSLVEYQGQDLYEATMSRDFYLATFEKLKTSPYVDINKLLLTGKKGSYVLDTVDETYLKVSQHYNENIQKVASLEDITDDIFKFTTNFTEETLEDGEAWVNENVPGVKAMTTGFESIDIVLDYVDKGVAIVELVKKLGITMDQVMAFGDNLNDLHMMQVVGHPVAPENARPEILELAKTVIGHHKERSVIAYMEGL", "soluble on expression in E. coli": "not soluble"},
      {"sequence": "MTIAVDFDGTIVEHRYPRIGEEIPFAVETLKLLQQEKHRLILWSVREGELLDEAIEWCRARGLEFYAANKDYPEEERDHQGFSRKLKADLFIDDRNVGGIPDWGIIYEMIKEKKTFADIYSQQREENTSQKKKRKWLPF", "soluble on expression in E. coli": "soluble"},
      {"sequence": "MTQTNNPLHGITLETIITQLVEHYGWEELGARIKIRCFTEAPSIKSSLRFLRKTDWAREKVEYLYLKTNKLPLPAAKSIQAPAKEPSKKSAPKPNSKPTQTKVVTPTPAVEGQVNSHIWGKRDLEHHHHHH", "soluble on expression in E. coli": "soluble"},
      {"sequence": "MAHHHHHHMLQWVVKEVEGPFGNIATIHWAVPEGQDDGESSDNTAESQKLHHKVGQGGKVQPELQHLLEDAEDQLGAVLWNSNSVAMGHLQKHVLQNHDKACHVVELGAGVGCLGIGLAMAGARVVITDMKELVPLMEKNIELNKERILSRSNGKGSCVAMTWRWGPPPLVKQKHNAKRVKINNARQHSSNADVPSAQNERGRSPYLLPSPAFVEMQRLLDHVDLVVLCDALYGNPKSWPQLLYTLSEILAANPRCEVINFCEQRVDDVEGDFLNLLQQENAKLPPPANSAVGPEGNETMEEALLRMRGSYKWSTSTEVVGEGPSDLGMPVRVTRISWVHRSGKWGTGASTASRDVVVDGADLGR", "soluble on expression in E. coli": "not soluble"},
      {"sequence": "MGSDKIHHHHHHMKYLPLYPILARYPFLRIASRVFSFNIEDELRKFLDTVEAAKRIVDKAIDGRVEYDRFTDESEFFCLGCEENCYDCQKRGTLEGCDLCMGCFENCSLYYPREAVERFYTNAKLSLLTYIASRMIVSAMEDWVRMRYAVNEASYYSRLLREDVEESGKEPIVRLVAIDLGAKLKGWKMHVSTFVRVSARIKDDKWRLVNRKLRNGWVETTKAEVLRGLEELLRMKLFEKVPVSEAVSEAVRELSRKAKRESEKFAMDLGEVDLNCLPPCMREILSELQRGMNIPHTARFAITSFLLNIGMTVDEIIALFKSAPDFDDEKTRYQVEHIAGERGKGAEYTSPSCDTMRTYSNCVADCRVSHPLIYYKKCKSKS", "soluble on expression in E. coli": "not soluble"},
      {"sequence": "MGSDKIHHHHHHMKYIINHSNDTAFNIALEEYAFKHLLDEDQIFLLWINKPSIIVGRHQNTIEEINRDYVRENGIEVVRRISGGGAVYHDLNNLNYTIISKEDENKAFDFKSFSTPVINTLAQLGVKAEFTGRNDLEIDGKKFCGNAQAYINGRIMHHGCLLFDVDLSVLANALKVSKDKFESKGVKSVRARVTNIINELPKKITVEKFRDLLLEYMKKEYPEMTEYVFSEEELAEINRIKDTKFGTWDWNYGKSPEFNVRRGIKFTSGKVEVFANVTESKIQDIKIYGDFFGIEDVAAVEDVLRGVKYEREDVLKALKTIDITRYFAGISREEIAEAVVG", "soluble on expression in E. coli": "soluble"},
      {"sequence": "MGSDKIHHHHHHMKATKRIAEATQESLHRIFTIAEAPDSTLGRLEQEMSQNLVGFLNNHIVASKNALTDIEQDFINARIPEQPEFVSDHMHHLLDKLVAQSVHTSSPSFIGHMTSALPSFILPLSKLMVGLNQNLVKVETSKAFTPLERQVLGMMHNLVYQHDDVFYKNWMHSAEHSLGAFCSGGTVANITALWVARNKLLKADGDFRGVAREGLHRAMRHYGYQDLAILVSDRGHYSLKKSADILGIGQENVIAIPTDEHNKIDCQKLADKCQQLAAQNIKVLAIVGVAGTTETGNIDPLDKIAEIAQQNQCHFHVDAAWGGATLLSNKYRPLLKGIEQADSVTIDAHKQMYVPMGAGLVIFKDPASVSAIEHHAEYILRKGSKDLGSHTLEGSRPGMAMLVYSSLHIISRPGYEMLINQAIEKAEYFADIIHQHDDFELITRPELCLLTYRYAPKSVQALLARNDDEANKSVNMLLGKLTKFIQKRQREDGRSFVSRTRIEVSRYGGEKVIVFRVVLANPLTTKEILQGILQEQCQLAQESEQFLPELLQAAK", "soluble on expression in E. coli": "not soluble"},
      {"sequence": "MTVKAMALNTNQLFAYLNRGDIAEFKFSPLFTTLFFPNVATFSTQNIMLDTLDIEEVTMSAFCSPMVGSQVQRDKGYETSTIKPGYMKPKHEIDPTKTIMRMAGEDPAQLNDPTYRRMRLITGNMRRQINAIKARVEWLAVNAVTTGKNIIEGEGIERYEIDWKIPEKNIIEQADGKKWSEQDKETHYPIYDIELYADQAGCPANVMIMGAEVWRTLRSFKKFRELYDLSRGSESAAELACKNLGEVVSFKGYLGDLALIVYSGKYTDSDGTEKYFLEPDLLVLGNTNNKGLVAYGAIMDQEAVRTGATQNMFYPKNWIEDGDPAIEYVQTHSAPQPVPADIRKFVTVKIA", "soluble on expression in E. coli": "soluble"},
      {"sequence": "MSLSKLGYIPNQAARTLITNKTLTIGLIQKSSAPEIRQNPFNSDVLNGINQACNVRGYSTRMTVSENSGDLYHEVKTMIQSKSVDGFILLYSLKDDPIEHLLNEFKVPYLIVGKSLNYENIIHIDNDNIDAAYQLTQYLYHLGHRHILFLQESGHYAVTEDRSVGFKQYCDDVKISNDCVVIKSMNDLRDFIKQYCIDASHMPSVIITSDVMLNMQLLNVLYEYQLRIPEDIQTATFNTSFLTENATPSQTSVNINPDVLGFTAGNTIIDVLRNETISFREKLISTQIVERVSTTKIEGHHHHHH", "soluble on expression in E. coli": "soluble"},
      {"sequence": "MGSDKIHHHHHHMTKEQSYPPTCIDCGTQNCKFKERTYPEFCLTTHLEQEDLEWALKQYNDNNKIMAASAEVEYEGYCRLTRVEEIMTFARKMGYKKLGIAYCIGLVNEARIFARILRANGFEVYSVICKVAGIAKSSIGIPKECEKIGAAMCNPILQARLLNQAYTELNVVIGLCVGHDSLFYKYSNAYTTTLVTKDRVTGHNPAAALYTANSYYRKKLMPEGEQSK", "soluble on expression in E. coli": "not soluble"},
      {"sequence": "MLLVSVISCLLISVLAKDAVTPRVGSQCTKNQVVRKLTVYEDGALEAECGPVPCGEVGKRCIDDQTSCRAETDVFSGMRWAPNGESILLRCCTMHAKNKIYVGTDVVAAGSFYEGGEVAEKDLYGDKGGAEYDFVANARTEQGGVRVWVYRMICAKGEKPVDFDPITTTSAPRVIKTTPAPTTTPTVEEEAEEAEQLEEDQPNDNEAEIVESNDEEEVVEEETEEEEEVTTTPAPKPFNPLRYRPPHFPRQSTGIRRA", "soluble on expression in E. coli": "not soluble"},
      {"sequence": "PYKASKSRGLVVSNIYSRYDINELESGLMRVSQNKYSPDNYLFQEGQYLDKETLEKWLDRKSEKNPNGLNPESNGDGKDRKPIYLAHILEQDYLKQTDKDTVALGGISIALAMNSVDYYQKEQYGDTFEQEISDSDLLAQGKEMSGTVLNRIRQTKGLENVPVTIAIYKQGPRDAVAPGNFLTYATANGDSLSSWKDVEEKNYVLPSTESAKDHKTDNDNFLNFKKAIEDYYPNFTGVVGRARYEDGQLAELSIDIPLQFYGQAEIIGFTQYVTDLVGQHIPKTADLQVNISTSDGPAALITRKANEDAATA", "soluble on expression in E. coli": "not soluble"},
      {"sequence": "LVTKEVEYEDGDTVCKGFIAYHSSASKPLPCVMVAHDWGGRGEGACNKARQLAGMGYIGFAIDMYGNAKLGKDKAEKRALMTPFRENRGKLITRINAAFNKVVQLPEVDSEKVAAIGYCFGGLCVLDLIRSGAPLKGVVSFHGVLLPLEGESNKSLNAKVLILHGYDDPLVPIEQVNQFAIEMTERKVDWQVHVYGQTAHSFTDPGANDDEMGLHYNKLADQRSWQSTQLFLQELF", "soluble on expression in E. coli": "not soluble"},
      {"sequence": "MGSDKIHHHHHHMRIFTASLATETNTFSPVPTDRASFEMAFYAAPGKHPETPTLCSSPIVALRKRAAAEGLTVIEGTATWAEPGGLLQRQAFEELRDEILDQLKAAMPVDAVVLGLHGAMVAQGYDDCEGDLLERVRAIVGPGVLVASEFDPHSHLTPKRVQNLNIFASFLEFPHTDFYERGEHVVELALDALKGRTKPVISTFDCRMIAVLPTSKEPMRSFVDRIKALQGKDGILSISVIHGFMAADVPEMGTRILVVTDNDPQAGAALAAALGRELIAMREQTSMAMLDTDQGIDRALAAHAANPSKPAVIADVWDNPGGGVAGDGTYILRRLIERGVNNAGIATIWDPIAVTFCHAAGEGAVIDLRFGGKSGPLGGEPIDARVTVLKVANEGWQSFGPSRVTLGPSAVVRIEDTGIDIILNTNRTQTFEPDIFSNLGIDPMTKNVLVVKSTNHFHAGFAPVAAEIIYVDAPSSYPSNPRTTNYRKLNRAIWPRVEDPW", "soluble on expression in E. coli": "not soluble"}
    ]}
  ]
}
